Experimental findings from the DeepSol protein solubility set are described below.

The series is described as follows: soluble on expression in E. coli; label from the status in PepcDB or PDB records.
As for “YSVTVKWGKEKFEGVELNTDEPPMVFKAQLFALTGVQPARQKVMVKGGTLKDDDWGNIKMKNGMTVLMMGSADALPEEPSAKT”, the “soluble on expression in E. coli” value was “soluble”. Turning to “DAMNVMPVLAEIRERKAAHRAGMPSHVINFTLLPMNAVDMAHLQATLGNGPIQLHSRGYGSCRVLATATRDVWSVQFLNAMDTMILDTLEIGDVPAAACAADEDFSDSAERLGEIIEAYFE”, the “soluble on expression in E. coli” value is reported as “not soluble”.

Consider “MQQANLGDGVATARLLSRSDWGARLPKSVEHFQGPAPYVIIHHSYMPAVCYSTPDCMKSMRDMQDFHQLERGWNDIGYSFGIGGDGMIYTGRGFNVIGAHAPKYNDKSVGIVLIGDWRTELPPKQMLDAAKNLIAFGVFKGYIDPAYKLLGHRQVRDTECPGGRLFAEISSWPHFTHINDTEGVSSTTAPVVPHVHPQAAAPQKPHQSPPAAPKV”, for which the “soluble on expression in E. coli” value is “soluble”.

Turning to “MTVVDAHLHVWDPEQAAYEWLGPAMAPVDRAMRFHDALPALRTAGVGAAVLVQAADNDEDTDLMLATAARHPEVVGVVAWVPLDDPGRARARLAALRRDPHVVGVRTLLHERSDPDWVLGPDADAGLALLAEAGLPFDYSTTSPAALRHLAELSARHPALRLVVDHLGKPPVGGGREDRAEWHRLIAAAAKHPGVHAKLSGLYSASGALDAWTTDEVRPFVEDALELFGPERLMYGGDWPISLLAGGYARTWEAMCELLAPLAPDDRAAVLGGTATRFYRLDPALLNTAHHAAVLEHHHHHH”, the “soluble on expression in E. coli” value is reported as “not soluble”.

For “MAHHHHHHMNERTSGGAMSTIQFGGTMTTTLSQAKNMDFSNDSPRRRRNRHNVILFPNHRDRLACDPLNFFCVYATYEYRWSDTTLEAERNIFALVDSMVAAVRKAFDDAFERWKNMPAFVQHAHTLRSAVSFSSALSTNTLLHMYSHADNVARHTTLRKTLGSMLPSLPAANPRQEMNICSASSAGRSTFSKGALPRAAHRERREEEEEAVMKNLAKQWIPPHNGPKCRLVLDIVASRKTLGDDPVISDPYRLGQKVFSFTRRNYLREVINTFVGISDSGVTLVGRDILYPFRSTGGGSPKPSVKMNSLSGNRRNLSGSAISGLPIDSGDILGVAASGGVAAKVSGFEQILANTIPVPRMVPVPPTNTEKVDNIRLLVCFPPNDISGSVA”, the “soluble on expression in E. coli” value is reported as “soluble”. As for “MGSDKIHHHHHHMEPKYTSFDKSAKTCIRQQVITEDLSWAHYQNAGERLYYQNDTQHTLSMYLDGGYETHRTDIKADYGAPSKFCLMPQGCQSHWQLGQPQQFMHLYFSDEHLKKLAVRVFDKDPRQVRLPELTFVDNPRLEALFRHQVAGLNWQTSDNHLMMEQVTDTVLVTLLQSSGFNLSVGPIKGGLAPKVAKAIKEFIYCHSHRQIYLSELAEIAQLSEYHFCRMFKCQFAMTPQEYLLQVRIEKVKQSLSHSTQSLTDIALNNGFANQSHMGRYFKKLSGMSPGEYQKHHQGR”, the entry is “not soluble”. The value for “MGSDKIHHHHHHMENQEKPLSVDEEYDLWKSNVPLMYDFVSETRLTWPSLTVQWLPTPVQELDGGFIKQELIIGTHTSGEEENYLKFAEINLPKEILSNEDPQEEAGEEYQSSLPAPRSNIRITAKYEHEEEITRARYMPQDPNIVATINGQGTVFLYSRSEGLQSTLKFHKDNGYALSFSTLVKGRLLSGSDDHTVALWEVGSGGDPTKPVRTWNDLHSDIINDNKWHNFNKDLFGTVSEDSLLKINDVRANNTTIDTVKCPQPFNTLAFSHHSSNLLAAAGMDSYVYLYDLRNMKEPLHHMSGHEDAVNNLEFSTHVDGVVVSSGSDNRLMMWDLKQIGAEQTPDDAEDGVPELIMVHAGHRSSVNDFDLNPQIPWLVASAEEENILQVWKCSHSLPIVGGPPKVNKDIIS” was “not soluble”; that for “SGIGTGHTSMNKGGKDVTLLELSVEKRRWRINMETSKIILEKMQSDDVLDGNRERSNEREGRDSLSEKLKSKQNLKDEEKLRYIKTGKSIQVEGTVRAKALRWVQ” was “soluble”. As for “MHHHHHHSSGLVPRGSGMKETAAAKFERQHMDSPDLGTDDDDKAMADIGSEFDMANIAVQRIKREFKEVLKSEETSKNQIKVDLVDENFTELRGEIAGPPDTPYEGGRYQLEIKIPETYPFNPPKVRFITKIWHPNISSVTGAICLDILKDQWAAAMTLRTVLLSLQALLAAAEPDDPQDAVVANQYKQNPEMFKQTARLWAHVYAGAPVSSPEYTKKIENLCAAGFDRNAVIVALSSKSWDVETATELLLSN”, the entry is “soluble”; as for “MSLKITGNTILITGGGSGIGRALAEAFHQAGNRVIISGRRQAVLDEVTAANPGMASMVMDAGDAEGIRAFAEALVKAHPTLNAVINNAGIMRPEEIAAAPDYLDTAEETIATNLLAPIRLTAALLPHFLKQPAATVLTVSSGLAFVPMVLTPTYSATKSAIHAYSVALREQLKETSVEVIEIVPPYVQTTLMGEGQANDERAMPLEAFISEVMDILKNRPDEKEVVVERCKPLRFAAQNGNFDQVFAMINHMHEGHHHHHH”, “soluble”.

Regarding “MADILLLDNIDSFTYNLVDQLRSSGHRVVIYRNHIAADNIIERLQQLEQPVLMLSPGPGTPAQAGCMPELLQRLQGQLPMIGICLGHQAIIEAYGGHVGQAGEILHGKASAIEHDGQGMFAGMPNPLPVARYHSLVGSNLPAELTVNARFGEMVMAVRHDAHRVCGYQFHPESILTTHGARLLEQTLAWALA”, the “soluble on expression in E. coli” value is listed as “not soluble”.

As to “MDIGDHGTHCAGIIAGFGPNVKIASLKHLSGNKFKDLDNWVSTMIKAINYADAMDIKIVNVSLGLHKSQIGDRPFDSQALNDAISNADLLFVTAAGNFNKNIDLPDDVIYPASCTAENIITVANTDKDDKLYESSNYGVISVDLAAPGTDIRSTIPTHLAGEGGPYDIKTGTSMSAPHVAGAAALLLSSNPSLTTQQLKDLILSSVDFLPDLQGKVATSGRLNVAKALRKIRTSVKIGDIDGNGEISSIDYAILKSHLINSNLTFKQLAAADVDGNGYVNSIDLAILQMYLLGKGGTSDIGKNRIYTYGDIDNNGIVDENDYILICNHINGTGQLSDASLFAADADGNNVIDQTDRILIEKYITGRITHLPVGNQ”, the “soluble on expression in E. coli” value is listed as “not soluble”.

As for “MGSDKIHHHHHHMSSLGLIRNLPRSRFVPLVVLHDTDGPVADLFRREGIDFVAAPVLNRLARAAPRNGAAVVNVMRTLPALVRFLRASNASIVHTNDGRTHLIWGLAARVAGAKHLWHHRGDATSFGLRRVAPWLPNRLVAVSKFASPRPGIFSAASKCSVVHSPFDVTKMAGFEREEARNNVLAAIRCAPETKLLGYVGTLVDRKRPILFVEAVAALKRLSPETKVVGLFFGNALNGLDEAAKSRAEALGVADCIHFMGFRYPGEPWIAGLDALLVTAVNEPLGRTLVEAMLLGTPVVAADSGGNPEVVEDGRTGMLVRADDPDEFARACLKLFSDAALRDRIVETARNEVRARFSFERHVHAITSVYEELTGGMAAMQRSARAG”, the “soluble on expression in E. coli” value is given as “not soluble”.

On to “MLVNGALSTTGSFGQTVKYLQPHYNLVLFDLPFSGQSRAHNPDEMIVSKEDEVQILLQLIDLYQVNYLLSVSWGGVSALLALAQCPASVEKAIISSFSPVLNEPMLDYIDKAQVYLAAREKRKIGSLLNDTVGKHLPRLFKLYNYKHLIGLAEHEYGQIDFHISQIRTLSASNYVERFSSIKIPVLFINGEKDEYTTVEDARMFSNYIAKSSFNVVPDTGHFLDLESKAAWHHSQKTALSFLGT”, for which the “soluble on expression in E. coli” value is on record as “not soluble”. As for “MSLFMNPHRRFWMVTGWTKSAIWVARWLLGIRWQCQGWEHIEEAVATNKQVVLLSKHQSAWETIAFVAIMPRPLCYVFKRELLYVPFFGWALGMLKMVHINRKDGTNAFASVARQGKERMADGSWIIMFPEGTRTPVGAPNPRYKSGGARLAVDTGAWVIPIAHNSGRLWPRNAFLKYPGLITLSIGPAISSAGKSGDQLNREVQAWIEAEMRRIDADSYEGHHHHHH”, the “soluble on expression in E. coli” value is reported as “not soluble”. For “MKLDDLNLFRQVVENGSYTAASRKTLIPVATITRRIQALEDSLDIRLLNRHARKLSLTEAGQKFYDECAPILATLVNTSEYLGEECRGAAGKLKIAAPSNLTKRMIQPILNKFMLLYPDISINLTMSNQPEQLDPTDWDIIFRVGKQRDSSLIARQIGSLEDILVASPSYLEKNSEPTHAQELHKHSLLKGNPLMRWRLTNKDGESVTITDAGRFEASELNVIRMACSNGLGITLMPDIMISQYLEEGSLIRVLSDWSANPRDIYMIYNYKDHQPEKVRLFIDFVSNHIPD”, the “soluble on expression in E. coli” value is “not soluble”.
